One substance from PMC5626683 can be followed below.

This test deals with GST-MreC from Helicobacter pylori (residues L37-N248), wild type (H. pylori) (UniProt B5Z916). Put plainly: ITC; iTC200, 20 °C; PBP2 (3 μL of 160.4 μM) titrated into the cell with GST-tagged MreC (25 μM).

Turning to “PBP2 from Helicobacter pylori (residues L38-L588, lacking the TM helix), His6-tagged (domain or fragment)”, the Kd is 0.4 µM.

For orientation: Kd means a measure of binding affinity in units of concentration. Read a low Kd as a tighter complex.
